Experimental findings from patent US20240209086A1 (PETMEDIX, published 2024) are described below.

The assay deals with canine CD3 on canine T cells (canine PBMC) (canine, UniProt P27597 22-202). Briefly: cell-based or functional assay.

Numbering of substitutions follows the chain as printed.

Sequence of canine CD3 on canine T cells (canine PBMC) (P27597 22-202 limits assumed, chain 1 of 3): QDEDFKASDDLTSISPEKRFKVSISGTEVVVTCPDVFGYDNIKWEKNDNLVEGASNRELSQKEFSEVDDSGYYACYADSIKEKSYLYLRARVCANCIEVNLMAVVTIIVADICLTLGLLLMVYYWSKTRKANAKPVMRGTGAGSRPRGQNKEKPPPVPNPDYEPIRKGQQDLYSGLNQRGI
Sequence of canine CD3 on canine T cells (canine PBMC) (chain, as listed by the source limits assumed, chain 2 of 3): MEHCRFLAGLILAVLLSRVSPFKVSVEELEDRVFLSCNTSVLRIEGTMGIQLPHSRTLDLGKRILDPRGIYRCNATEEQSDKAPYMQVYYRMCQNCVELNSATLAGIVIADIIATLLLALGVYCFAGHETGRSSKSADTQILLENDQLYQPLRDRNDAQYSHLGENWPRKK
Sequence of canine CD3 on canine T cells (canine PBMC) (chain, as listed by the source limits assumed, chain 3 of 3): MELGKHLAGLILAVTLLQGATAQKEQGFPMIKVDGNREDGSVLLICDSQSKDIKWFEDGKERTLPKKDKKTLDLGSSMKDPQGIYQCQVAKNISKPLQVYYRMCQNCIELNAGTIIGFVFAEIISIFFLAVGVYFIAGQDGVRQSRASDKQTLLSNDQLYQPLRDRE

B1: PMX195 (monospecific anti-canine CD3, canine IgG-B effector function deficient Fc) (antibody, V domains shown)
VH: EVQLVESGGDLVKPAGSLRLSCMASGFTFSSYSMSWVRQAPEKGLQLVAGINGDGSTTYYTDAVKGRFTISRDNAKNTVYLQMNNLRVEDSAMYYCAKGAGTGDYWGQGTLVTVSS
VL: SYELTQPPSLNVTLRETAHITCGGDRIGSRYVQWIQQNPGQAPVVVIYKDSNRPTGIPERFSGANSGNTATLTISGALAEDEADYYCQVGDSGNWVFGGGTQLTVL
For the molecule B1, the “CD25 Activation, Day 6, IS” value is 10.4; the “CD25 Activation, Day 6, PB” value stood at 16.8; the “CD25 Activation, Day 9, IS” value worked out at 7.58; the “CD25 Activation, Day 9, PB” value was 14.7. Also, the “IFNy Concentration pg/ml, Day 6, IS” value worked out at 63.9 pg/mL; the “IFNy Concentration pg/ml, Day 9, IS” value was found to be 208 pg/mL; the “IFNy Concentration pg/ml, Day 9, PB” value is 627 pg/mL; the “Ki67 Proliferation, Day 6, IS” value is 2.94. Besides, the “Ki67 Proliferation, Day 6, PB” value stood at 0.43; the “Ki67 Proliferation, Day 9, IS” value came to 2.33; the “Ki67 Proliferation, Day 9, PB” value came out at 0.67.

B2: PMX194 (monospecific anti-canine CD3, canine IgG-B effector function deficient Fc) (antibody, V domains shown)
VH: EVQLVESGGDLVKPGGSLRLSCVASGFTFSNYHMSWVRQAPGKGLQWVAYSNSGRMSTDYADAVKGRFTISRDNAKNTLYLQMNSLRPEDTAVYYCATVIYGLFDYWGQGTLVTVSS
VL: DIVMTQTPLSLSVSPGEPASISCKASQSLLYSNGNTYLYWFRQKPGQSPQRLIYKVSKRDSGVPDRFSGSGSGTDFTLRIRRVEADDAGVYYCGQGTQDPYTFSQGTKLEIK
For the molecule B2, the “CD25 Activation, Day 6, IS” value worked out at 13; the “CD25 Activation, Day 6, PB” value came out at 17.3; the “CD25 Activation, Day 9, IS” value turned out to be 7.96; the “CD25 Activation, Day 9, PB” value stood at 17.1. Besides, the “IFNy Concentration pg/ml, Day 6, IS” value came out at 133 pg/mL; the “IFNy Concentration pg/ml, Day 9, IS” value came out at 170 pg/mL; the “IFNy Concentration pg/ml, Day 9, PB” value is 568 pg/mL; the “Ki67 Proliferation, Day 6, IS” value turned out to be 1.46. Also, the “Ki67 Proliferation, Day 6, PB” value was 0.21; the “Ki67 Proliferation, Day 9, IS” value is 1.49; the “Ki67 Proliferation, Day 9, PB” value was determined as 1.11.

B3: PMX193 (monospecific anti-canine CD3, canine IgG-B effector function deficient Fc) (antibody, V domains shown)
VH: EVQLVESGGDLVKPGGSLRLSCVASGFTFSTYHMSWVRQAPGKGLQWVAYISSGGSRTNYADAVKGRFTISRDNAKNTLYLQMNSLRAEDAAVFYCARHYGSSLFDYWGQGTLVTVSS
VL: DIVMTQTPLSLSVSPGEPASISCKASQSLLHINGNTYLYWFRQKPGQSPQRLIYKVSNRDPGVPDRFSGSGSGTDFTLRISRVEADDAGVYYCGQGIQDPTFGKGTHLEIK
For the molecule B3, the “CD25 Activation, Day 6, IS” value is 8.3; the “CD25 Activation, Day 6, PB” value was 11.1; the “CD25 Activation, Day 9, IS” value turned out to be 12.6; the “CD25 Activation, Day 9, PB” value is 16.1. Also, the “IFNy Concentration pg/ml, Day 6, IS” value is 52.6 pg/mL; the “IFNy Concentration pg/ml, Day 9, IS” value was 544 pg/mL; the “IFNy Concentration pg/ml, Day 9, PB” value amounted to 401 pg/mL; the “Ki67 Proliferation, Day 6, IS” value is 0.64. Besides, the “Ki67 Proliferation, Day 6, PB” value came out at 0.11; the “Ki67 Proliferation, Day 9, IS” value turned out to be 1.53; the “Ki67 Proliferation, Day 9, PB” value is 0.18.

B4: PMX180 (monospecific anti-canine CD3, canine IgG-B effector function deficient Fc) (antibody, V domains shown)
VH: ELTLQESGPGLVKPSQTLSLTCVVSGGSVTSNYYWNWIRQRPGRGLEWMGYWTGSTNYNPAFQGRISITADTAKKQFSLQLRSMTIEDTAVYYCARRGIPIFFDYWGQGTLVTVSS
VL: SYVLTQLPSKNVTLKQPAHITCGGDNIGSKSVHWYQQKLGQAPVLIIYYDSSRPTGIPERFSGANSGNTATLTISGALAEDEADYYCQVWDSSASVFGGGTHLTVL
For B4, the “CD25 Activation, Day 6, IS” value turned out to be 10.7; the “CD25 Activation, Day 6, PB” value is 8.6; the “CD25 Activation, Day 9, IS” value turned out to be 13.9; the “CD25 Activation, Day 9, PB” value is 17. The “IFNy Concentration pg/ml, Day 6, IS” value turned out to be 55.5 pg/mL; the “IFNy Concentration pg/ml, Day 9, IS” value worked out at 318 pg/mL; the “IFNy Concentration pg/ml, Day 9, PB” value is 773 pg/mL; the “Ki67 Proliferation, Day 6, IS” value came out at 1.2. Further, the “Ki67 Proliferation, Day 6, PB” value worked out at 0.21; the “Ki67 Proliferation, Day 9, IS” value worked out at 1.77; the “Ki67 Proliferation, Day 9, PB” value was 0.58.

B5: PMX181 (monospecific anti-canine CD3, canine IgG-B effector function deficient Fc) (antibody, V domains shown)
VH: ELTLQESGPGLVKPSQTLSLTCIVSGGSVTNNYYWTWIRQRPGRGLEWMGYWTGFTNYNPAFQGRISIIANTAKKQLSLQLSSLTTEDTAVYYCARRAIPTYFDYWGQGTLVTVSS
VL: B4 VL with K30R
For the molecule B5, the “CD25 Activation, Day 6, IS” value amounted to 10.6; the “CD25 Activation, Day 6, PB” value is 5.68; the “CD25 Activation, Day 9, IS” value is 9.09; the “CD25 Activation, Day 9, PB” value worked out at 23.9. The “IFNy Concentration pg/ml, Day 6, IS” value amounted to 33.1 pg/mL; the “IFNy Concentration pg/ml, Day 9, IS” value turned out to be 118 pg/mL; the “IFNy Concentration pg/ml, Day 9, PB” value stood at 1690 pg/mL; the “Ki67 Proliferation, Day 6, IS” value was found to be 2.15. The “Ki67 Proliferation, Day 6, PB” value turned out to be 0.55; the “Ki67 Proliferation, Day 9, IS” value was 2.69; the “Ki67 Proliferation, Day 9, PB” value amounted to 0.7.

B6: PMX182 (monospecific anti-canine CD3, canine IgG-B effector function deficient Fc) (antibody)
heavy: EVQLVESGGDLVKPGGSLRLSCVTSGFTFSNYHMNWVRQAPGKGLQWVAYINSGGSSTSYADAVKGRFTISRDNAKNTLYLQMNSLRAEDTAMYYCASDWDYCADDTCEGMGYWGHGTSLFVSSASTTAPSVFPLAPSCGSTSGSTVALACLVSGYFPEPVTVSWNSGSLTSGVHTFPSVLQSSGLYSLSSMVTVPSSRWPSETFTCNVAHPASKTKVDKPVPKRENGRVPRPPDCPKCPAPESLGGPSVFIFPPKPKDTLLIARTPEVTCVVVDLGREDPEVQISWFVDGKQMQTAKTQPREEQFNGTYRVVSVLPIGHQDWLKGKQFTCKVNHIGLPSPIERTISKARGQAHQPSVYVLPPSREELSKNTVSLTCLIKDFFPPDIDVEWQSNGQQEPESKYRTTPPQLDEDGSYFLYSKLSVDKSRWQRGDTFICAVMHEALHNHYTQKSLSHSPGK
VL: SYVLTQLPSKNVTLKQPAHITCGGDNIGSKSVHWYQQKLGQAPVLIIYYDSSRPTGIPERFSGANSGNTATLTISGALAEDEADYYCQVWDSSAKAWVFGEGTQLTVL
With B6, the “CD25 Activation, Day 6, IS” value amounted to 7.88; the “CD25 Activation, Day 6, PB” value is 5.89; the “CD25 Activation, Day 9, IS” value amounted to 14.6; the “CD25 Activation, Day 9, PB” value amounted to 21.4. In addition, the “IFNy Concentration pg/ml, Day 6, IS” value was 50.2 pg/mL; the “IFNy Concentration pg/ml, Day 9, IS” value is 1340 pg/mL; the “IFNy Concentration pg/ml, Day 9, PB” value is 1470 pg/mL; the “Ki67 Proliferation, Day 6, IS” value was 2.01. Besides, the “Ki67 Proliferation, Day 6, PB” value came to 0.7; the “Ki67 Proliferation, Day 9, IS” value amounted to 1.72; the “Ki67 Proliferation, Day 9, PB” value stood at 1.55.

B7: PMX183 (monospecific anti-canine CD3, canine IgG-B effector function deficient Fc) (antibody, V domains shown)
VH: ELTLQESGPGLVKPSQTLSLTCVVSGGSVTNSYYWNWIRQRPGRELEWMGYWTGGTKYNPAFQGRISISADTAKNQFSLQLTSMTTEDTAVYYCARDRDRRVPHAYGYWGQGTLVTVSS
VL: B6 VL with W97S, E101G, Q104H
B7: the “CD25 Activation, Day 6, IS” value was found to be 13.3; the “CD25 Activation, Day 6, PB” value is 13.6; the “CD25 Activation, Day 9, IS” value was determined as 10.1; the “CD25 Activation, Day 9, PB” value stood at 13.3. In addition, the “IFNy Concentration pg/ml, Day 6, IS” value was determined as 63.7 pg/mL; the “IFNy Concentration pg/ml, Day 9, IS” value amounted to 153 pg/mL; the “IFNy Concentration pg/ml, Day 9, PB” value stood at 145 pg/mL; the “Ki67 Proliferation, Day 6, IS” value stood at 1.61. Besides, the “Ki67 Proliferation, Day 6, PB” value is 0.36; the “Ki67 Proliferation, Day 9, IS” value worked out at 1.99; the “Ki67 Proliferation, Day 9, PB” value was determined as 0.48.

B8: PMX196 (monospecific anti-canine CD3, canine IgG-B effector function deficient Fc) (antibody, V domains shown)
VH: ELTLQESGPGLVKPSQTLSLTCVVSGGSVTSSYYWNWIRQRPGRGLEWMGYWTGSTIYNPAFQGRISITADTAKNQFSLQLSSMTTEDTAVYFCVRERRMAFGSWGQGTLVIVSS
VL: B6 VL with N11S, S29R, Y48S, Y49F, S51N, S52N, W97S, E101G, Q104H
With B8, the “CD25 Activation, Day 6, IS” value came to 10.4; the “CD25 Activation, Day 6, PB” value was found to be 23; the “CD25 Activation, Day 9, IS” value stood at 6.6; the “CD25 Activation, Day 9, PB” value turned out to be 17.1. For the same molecule, the “IFNy Concentration pg/ml, Day 6, IS” value was found to be 34.8 pg/mL; the “IFNy Concentration pg/ml, Day 9, IS” value came out at 160 pg/mL; the “IFNy Concentration pg/ml, Day 9, PB” value was 2080 pg/mL; the “Ki67 Proliferation, Day 6, IS” value was 0.92. Besides, the “Ki67 Proliferation, Day 6, PB” value was 1.41; the “Ki67 Proliferation, Day 9, IS” value was found to be 0.94; the “Ki67 Proliferation, Day 9, PB” value came out at 0.

B9: PMX197 (monospecific anti-canine CD3, canine IgG-B effector function deficient Fc) (antibody, V domains shown)
VH: ELTLQESGPGLVKPSQTLSLTCLVSGGSVTRSYYWNWIRQRPGRGLEWMGYWTGSTNYNPAFQGRISIIPDTAKNQFSLQLTSMTTDDTAIYFCAREGGRTLGAFADWGQGTLVTVSS
VL: B6 VL with N26K, S31N, W97S, E101G, Q104H
On to B9, for which the “CD25 Activation, Day 6, IS” value came out at 10.5; the “CD25 Activation, Day 6, PB” value was 23.3; the “CD25 Activation, Day 9, IS” value is 9.24; the “CD25 Activation, Day 9, PB” value worked out at 14. Moreover, the “IFNy Concentration pg/ml, Day 6, IS” value was found to be 58 pg/mL; the “IFNy Concentration pg/ml, Day 9, IS” value came to 307 pg/mL; the “IFNy Concentration pg/ml, Day 9, PB” value was 2340 pg/mL; the “Ki67 Proliferation, Day 6, IS” value was determined as 1.43. Besides, the “Ki67 Proliferation, Day 6, PB” value came out at 0.67; the “Ki67 Proliferation, Day 9, IS” value turned out to be 3.21; the “Ki67 Proliferation, Day 9, PB” value was 0.

B10: PMX184 (monospecific anti-canine CD3, canine IgG-B effector function deficient Fc) (antibody, V domains shown)
VH: ELTLQESGPGLVKPSQTLSLTCGVSGGSVTRSHYWNWVRQRPGRGLEWMGYWTGSTNYNPAFQGRISITADTAKNQFSLQLRSMTTEDTAVYFCARETTIPTFFFDYWGQGTLVTVSS
VL: B6 VL with S93G
For the molecule B10, the “CD25 Activation, Day 6, IS” value came to 10.4; the “CD25 Activation, Day 6, PB” value turned out to be 28.8; the “CD25 Activation, Day 9, IS” value turned out to be 12.3; the “CD25 Activation, Day 9, PB” value came out at 28.2. For the same molecule, the “IFNy Concentration pg/ml, Day 6, IS” value came out at 74.8 pg/mL; the “IFNy Concentration pg/ml, Day 9, IS” value stood at 322 pg/mL; the “IFNy Concentration pg/ml, Day 9, PB” value is 3290 pg/mL; the “Ki67 Proliferation, Day 6, IS” value was 2.42. The “Ki67 Proliferation, Day 6, PB” value was determined as 1.47; the “Ki67 Proliferation, Day 9, IS” value was found to be 1.64; the “Ki67 Proliferation, Day 9, PB” value was 0.75.
